Experimental data published in US20240279344A1 (CDR LIFE, published 2024).

B1: M1133 (bispecific antibody, V domains shown)
VH: EVQLLESGGGSVQPGGSLRLSCTVSGFSLSNYAMSWVRQAPGKGLEWIGIVSAGGTTYYASWAKGRFTISKDTSKNTVYLQMNSLRAEDTASYYCAKDLYYGPTTYSAFNLWGQGTSVTVSS
VL: SYELTQPPSVSVSPGQTASITCTADTLSRSYASWYQQKPGQSPVLVIYRDTSRPSGIPERFSGSNSGNTATLTISGTQAMDEADYYCATRPSSGSNFQLFGGGTKLTVL
notes: Variant of humanized M0763; tested in SPR as anti-CD3 Fab x anti-MAGE-A4 scFv bispecific
B2: M1134 (bispecific antibody, V domains shown)
VH: EVQLLESGGGSVQPGGSLRLSCTVSGFSLSNYAMSWVRQAPGKGLEWIGIVSSAGTTYYASWAKGRFTISKDTSKNTVYLQMNSLRAEDTASYYCAKDLYYGPTTYSAFNLWGQGTSVTVSS
VL: SYELTQPPSVSVSPGQTASITCTADTLSRSYASWYQQKPGQSPVLVIYRDTSRPSGIPERFSGSNSGNTATLTISGTQAMDEADYYCATRPSSGSNFQLFGGGTKLTVL
notes: as for B1
B3: M1135 (bispecific antibody, V domains shown)
VH: EVQLLESGGGSVQPGGSLRLSCTVSGFSLSNYAMSWVRQAPGKGLEWIGIVSSGATTYYASWAKGRFTISKDTSKNTVYLQMNSLRAEDTASYYCAKDLYYGPTTYSAFNLWGQGTSVTVSS
VL: SYELTQPPSVSVSPGQTASITCTADTLSRSYASWYQQKPGQSPVLVIYRDTSRPSGIPERFSGSNSGNTATLTISGTQAMDEADYYCATRPSSGSNFQLFGGGTKLTVL
notes: as for B1
B4: M1136 (bispecific antibody, V domains shown)
VH: EVQLLESGGGSVQPGGSLRLSCTVSGFSLSNYAMSWVRQAPGKGLEWIGIVSSGGATYYASWAKGRFTISKDTSKNTVYLQMNSLRAEDTASYYCAKDLYYGPTTYSAFNLWGQGTSVTVSS
VL: SYELTQPPSVSVSPGQTASITCTADTLSRSYASWYQQKPGQSPVLVIYRDTSRPSGIPERFSGSNSGNTATLTISGTQAMDEADYYCATRPSSGSNFQLFGGGTKLTVL
notes: as for B1
B5: M1137 (bispecific antibody, V domains shown)
VH: EVQLLESGGGSVQPGGSLRLSCTVSGFSLSNYAMSWVRQAPGKGLEWIGIVSSGGTAYYASWAKGRFTISKDTSKNTVYLQMNSLRAEDTASYYCAKDLYYGPTTYSAFNLWGQGTSVTVSS
VL: SYELTQPPSVSVSPGQTASITCTADTLSRSYASWYQQKPGQSPVLVIYRDTSRPSGIPERFSGSNSGNTATLTISGTQAMDEADYYCATRPSSGSNFQLFGGGTKLTVL
notes: as for B1
B6: M1138 (bispecific antibody, V domains shown)
VH: EVQLLESGGGSVQPGGSLRLSCTVSGFSLSNYAMSWVRQAPGKGLEWIGIVSSGGTTAYASWAKGRFTISKDTSKNTVYLQMNSLRAEDTASYYCAKDLYYGPTTYSAFNLWGQGTSVTVSS
VL: SYELTQPPSVSVSPGQTASITCTADTLSRSYASWYQQKPGQSPVLVIYRDTSRPSGIPERFSGSNSGNTATLTISGTQAMDEADYYCATRPSSGSNFQLFGGGTKLTVL
notes: as for B1
B7: M1139 (bispecific antibody, V domains shown)
VH: EVQLLESGGGSVQPGGSLRLSCTVSGFSLSNYAMSWVRQAPGKGLEWIGIVSSGGTTYAASWAKGRFTISKDTSKNTVYLQMNSLRAEDTASYYCAKDLYYGPTTYSAFNLWGQGTSVTVSS
VL: SYELTQPPSVSVSPGQTASITCTADTLSRSYASWYQQKPGQSPVLVIYRDTSRPSGIPERFSGSNSGNTATLTISGTQAMDEADYYCATRPSSGSNFQLFGGGTKLTVL
notes: as for B1
B8: M1140 (bispecific antibody, V domains shown)
VH: EVQLLESGGGSVQPGGSLRLSCTVSGFSLSNYAMSWVRQAPGKGLEWIGIVSSGGTTYYSSWAKGRFTISKDTSKNTVYLQMNSLRAEDTASYYCAKDLYYGPTTYSAFNLWGQGTSVTVSS
VL: SYELTQPPSVSVSPGQTASITCTADTLSRSYASWYQQKPGQSPVLVIYRDTSRPSGIPERFSGSNSGNTATLTISGTQAMDEADYYCATRPSSGSNFQLFGGGTKLTVL
notes: as for B1
B9: M1141 (bispecific antibody, V domains shown)
VH: EVQLLESGGGSVQPGGSLRLSCTVSGFSLSNYAMSWVRQAPGKGLEWIGIVSSGGTTYYAAWAKGRFTISKDTSKNTVYLQMNSLRAEDTASYYCAKDLYYGPTTYSAFNLWGQGTSVTVSS
VL: SYELTQPPSVSVSPGQTASITCTADTLSRSYASWYQQKPGQSPVLVIYRDTSRPSGIPERFSGSNSGNTATLTISGTQAMDEADYYCATRPSSGSNFQLFGGGTKLTVL
notes: as for B1
B10: M1142 (bispecific antibody, V domains shown)
VH: EVQLLESGGGSVQPGGSLRLSCTVSGFSLSNYAMSWVRQAPGKGLEWIGIVSSGGTTYYASAAKGRFTISKDTSKNTVYLQMNSLRAEDTASYYCAKDLYYGPTTYSAFNLWGQGTSVTVSS
VL: SYELTQPPSVSVSPGQTASITCTADTLSRSYASWYQQKPGQSPVLVIYRDTSRPSGIPERFSGSNSGNTATLTISGTQAMDEADYYCATRPSSGSNFQLFGGGTKLTVL
notes: as for B1
B11: M1143 (bispecific antibody, V domains shown)
VH: EVQLLESGGGSVQPGGSLRLSCTVSGFSLSNYAMSWVRQAPGKGLEWIGIVSSGGTTYYASWSKGRFTISKDTSKNTVYLQMNSLRAEDTASYYCAKDLYYGPTTYSAFNLWGQGTSVTVSS
VL: SYELTQPPSVSVSPGQTASITCTADTLSRSYASWYQQKPGQSPVLVIYRDTSRPSGIPERFSGSNSGNTATLTISGTQAMDEADYYCATRPSSGSNFQLFGGGTKLTVL
notes: as for B1
B12: M1144 (bispecific antibody, V domains shown)
VH: EVQLLESGGGSVQPGGSLRLSCTVSGFSLSNYAMSWVRQAPGKGLEWIGIVSSGGTTYYASWAAGRFTISKDTSKNTVYLQMNSLRAEDTASYYCAKDLYYGPTTYSAFNLWGQGTSVTVSS
VL: SYELTQPPSVSVSPGQTASITCTADTLSRSYASWYQQKPGQSPVLVIYRDTSRPSGIPERFSGSNSGNTATLTISGTQAMDEADYYCATRPSSGSNFQLFGGGTKLTVL
notes: as for B1
B13: M1145 (bispecific antibody, V domains shown)
VH: EVQLLESGGGSVQPGGSLRLSCTVSGFSLSNYAMSWVRQAPGKGLEWIGIVSSGGTTYYASWAKARFTISKDTSKNTVYLQMNSLRAEDTASYYCAKDLYYGPTTYSAFNLWGQGTSVTVSS
VL: SYELTQPPSVSVSPGQTASITCTADTLSRSYASWYQQKPGQSPVLVIYRDTSRPSGIPERFSGSNSGNTATLTISGTQAMDEADYYCATRPSSGSNFQLFGGGTKLTVL
notes: as for B1
B14: M1169 (bispecific antibody, V domains shown)
VH: EVQLLESGGGSVQPGGSLRLSCTVSGFSLSNYAMSWVRQAPGKGLEWIGIVSSGGTTYYASWAKGRFTISKDTSKNTVYLQMNSLRAEDTASYYCAKDLYYGPTTYSAANLWGQGTSVTVSS
VL: SYELTQPPSVSVSPGQTASITCTADTLSRSYASWYQQKPGQSPVLVIYRDTSRPSGIPERFSGSNSGNTATLTISGTQAMDEADYYCATRPSSGSNFVLFGGGTKLTVL
notes: as for B1
B15: M1171 (bispecific antibody, V domains shown)
VH: EVQLLESGGGSVQPGGSLRLSCTVSGFSLSNYAMSWVRQAPGKGLEWIGIVSSGGTTYYASWAKGRFTISKDTSKNTVYLQMNSLRAEDTASYYCAKDLYYGPTTYSALNLWGQGTSVTVSS
VL: SYELTQPPSVSVSPGQTASITCTADTLSRSYASWYQQKPGQSPVLVIYRDTSRPSGIPERFSGSNSGNTATLTISGTQAMDEADYYCATRPSSGSNFQLFGGGTKLTVL
notes: as for B1
B16: M1172 (bispecific antibody, V domains shown)
VH: EVQLLESGGGSVQPGGSLRLSCTVSGFSLSNYAMSWVRQAPGKGLEWIGIVSSGGTTYYASWAKGRFTISKDTSKNTVYLQMNSLRAEDTASYYCAKDLYYGPTTYSAPNLWGQGTSVTVSS
VL: SYELTQPPSVSVSPGQTASITCTADTLSRSYASWYQQKPGQSPVLVIYRDTSRPSGIPERFSGSNSGNTATLTISGTQAMDEADYYCATRPSSGSNFQLFGGGTKLTVL
notes: as for B1
B17: M1176 (bispecific antibody, V domains shown)
VH: EVQLLESGGGSVQPGGSLRLSCTVSGFSLSNYAMSWVRQAPGKGLEWIGIVSSGGTTYYASWAKGRFTISKDTSKNTVYLQMNSLRAEDTASYYCAKDLYYGPTTYSAANLWGQGTSVTVSS
VL: SYELTQPPSVSVSPGQTASITCTADTLSRSYASWYQQKPGQSPVLVIYRDTSRPSGIPERFSGSNSGNTATLTISGTQAMDEADYYCATRPSSGSVFQLFGGGTKLTVL
notes: as for B1
B18: M1177 (bispecific antibody, V domains shown)
VH: EVQLLESGGGSVQPGGSLRLSCTVSGFSLSNYAMSWVRQAPGKGLEWIGIVSSGGTTYYASWAKGRFTISKDTSKNTVYLQMNSLRAEDTASYYCAKDLYYGPTTYSAANLWGQGTSVTVSS
VL: SYELTQPPSVSVSPGQTASITCTADTLSRSYASWYQQKPGQSPVLVIYRDTSRPSGIPERFSGSNSGNTATLTISGTQAMDEADYYCATRPSSGSNTVVFGGGTKLTVL
notes: as for B1
B19: M1178 (bispecific antibody, V domains shown)
VH: EVQLLESGGGSVQPGGSLRLSCTVSGFSLSNYAMSWVRQAPGKGLEWIGIVSSGGTTYYASWAKGRFTISKDTSKNTVYLQMNSLRAEDTASYYCAKDLYYGPTTYSAANLWGQGTSVTVSS
VL: SYELTQPPSVSVSPGQTASITCTADTLSRSYASWYQQKPGQSPVLVIYRDTSRPSGIPERFSGSNSGNTATLTISGTQAMDEADYYCQARPSSGSNFQLFGGGTKLTVL
notes: as for B1
B20: M1202 (bispecific antibody, V domains shown)
VH: EVQLLESGGGSVQPGGSLRLSCTVSGFSLSNYAMSWVRQAPGKGLEWIGIVSSGGTTYYASWAKGRFTISKDTSKNTVYLQMNSLRAEDTASYYCAKDLYYGPTTYSSANLWGQGTSVTVSS
VL: SYELTQPPSVSVSPGQTASITCTADTLSRSYASWYQQKPGQSPVLVIYRDTSRPSGIPERFSGSNSGNTATLTISGTQAMDEADYYCATRPSSGSNFQLFGGGTKLTVL
notes: as for B1
B21: M1253 (bispecific antibody, V domains shown)
VH: EVQLLESGGGSVQPGGSLRLSCTVSGFSLSNYAMSWVRQAPGKGLEWIGIVSSGGTTYYASWAKGRFTISKDTSKNTVYLQMNSLRAEDTASYYCAKDLYYGPTTYSAANLWGQGTSVTVSS
VL: SYELTQPPSVSVSPGQTASITCTADTLSRSYASWYQQKPGQSPVLVIYRDTSRPSGIPERFSGSNSGNTATLTISGTQAMDEADYYCATRPSSGSNFQAFGGGTKLTVL
notes: as for B1

What follows are binders tested against T1, HLA-A2/MAGE-A4 complex, recombinant (HLA-A*02:01 extracellular domain, human b2m, MAGE-A4 peptide 230-239 …) (human, UniProt P04439 25-299 at identity 0.94); P61769 21-119) (assay: SPR, monovalent).
T1 construct: also called MAGE-A4 pMHC; MAGE-A4/HLA-A2 complex

For B1, which Kd is on record?
Its Kd is 12.4 nM.

Which Kd does the source give for B2 here?
The Kd was 4.2 nM.

How did the Kd turn out when B3 was run?
Its Kd is 2.4 nM.

For B4, which Kd is on record?
Its Kd is 2.7 nM.

B5 was tested. Which Kd did it give?
The Kd was 2.2 nM.

How did the Kd turn out when B6 was run?
Its Kd is 3.1 nM.

For B7, which Kd is on record?
Its Kd is 2.1 nM.

Which Kd does the source give for B8 here?
The Kd was 2.8 nM.

How did the Kd turn out when B9 was run?
The Kd was 1.2 nM.

How did the Kd turn out when B10 was run?
Its Kd is 2.9 nM.

Which Kd does the source give for B11 here?
The Kd was 2.4 nM.

With B12 as the binder, how does the Kd read?
The Kd was 2.3 nM.

How did the Kd turn out when B13 was run?
Its Kd is 2.1 nM.

Which Kd does the source give for B14 here?
The Kd was 3.2 nM.

B15 was tested. Which Kd did it give?
The Kd was 4.4 nM.

B16 was tested. Which Kd did it give?
The Kd was 1.5 nM.

With B17 as the binder, how does the Kd read?
The Kd was 6 nM.

How did the Kd turn out when B18 was run?
The Kd was 4.2 nM.

How did the Kd turn out when B19 was run?
The Kd was 8.3 nM.

How did the Kd turn out when B20 was run?
Its Kd is 3.9 nM.

How did the Kd turn out when B21 was run?
The Kd was 2.55 nM.
